{"source": "paper doi:10.64898/2025.12.08.692957", "key": {"[1]": {"biological_target": "Hcp (purified) (Acinetobacter baylyi)", "test": "mass photometry"}, "[2]": {"biological_target": "Hcp (purified) (Acinetobacter baylyi)", "test": "flow-induced dispersion analysis"}, "[3]": {"biological_target": "TagF, DyLight 488 labelled (Acinetobacter baylyi)", "test": "flow-induced dispersion analysis"}}}
{"substance": "Hcp (purified) (natural protein)", "values": [{"measurement": "percent of Hcp present as hexameric complex", "setting": "[1]", "value": "> 93", "unit": "%"}, {"measurement": "stoichiometry N", "setting": "[1]", "value": 6}, {"measurement": "stoichiometry N", "setting": "[2]", "value": 6}, {"measurement": "Kd", "setting": "[3]", "value": 30.4, "unit": "µM"}]}
